Reference: patent US20230056252A1 (Gilead, published 2023)

Tests used:
[1] = molecular target: T1, CD3 expressed on cell-surface of primary human T cells (human, UniProt P07766 23-207; P04234 22-171); assay: flow cytometry competition vs murine SP34-AF488 on human T cells, n = 1
T1 construct: also called cell-surface CD3; human CD3
Experimental: (§1) Binding of humanized SP34 Fab variants to CD3 expressed on cell-surface of primary human T cells was evaluated in a flow cytometry-based competition assay.

[2] = molecular target: T1, CD3 expressed on cell-surface of …; assay: flow cytometry competition vs murine SP34-AF488 on human T cells, n = 2
Experimental: as §1

[3] = molecular target: T1, CD3 expressed on cell-surface of …; assay: flow cytometry competition vs murine SP34-AF488 on human T cells, average
Experimental: as §1

[4] = molecular target: T1, CD3 expressed on cell-surface of …; assay: flow cytometry competition vs murine SP34-AF488 on human T cells, n = 1; remark: listed apart in the source
Experimental: as §1
(§2) A second round of huSP34 Fab variants were characterized using the same flow cytometry-based competition assay as described above.

[5] = molecular target: T1, CD3 expressed on cell-surface of …; assay: flow cytometry competition vs murine SP34-AF488 on human T cells, n = 2; remark: listed apart in the source
Experimental: as §1, §2

[6] = molecular target: T1, CD3 expressed on cell-surface of …; assay: flow cytometry competition vs murine SP34-AF488 on human T cells, average; remark: listed apart in the source
Experimental: as §1, §2

T1 sequence (P07766 23-207 limits assumed, chain 1 of 2): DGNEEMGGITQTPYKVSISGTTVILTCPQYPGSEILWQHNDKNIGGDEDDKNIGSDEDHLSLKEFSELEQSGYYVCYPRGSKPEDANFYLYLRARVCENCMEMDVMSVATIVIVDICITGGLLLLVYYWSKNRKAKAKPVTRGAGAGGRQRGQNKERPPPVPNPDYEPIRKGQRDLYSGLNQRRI
T1 sequence (P04234 22-171 limits assumed, chain 2 of 2): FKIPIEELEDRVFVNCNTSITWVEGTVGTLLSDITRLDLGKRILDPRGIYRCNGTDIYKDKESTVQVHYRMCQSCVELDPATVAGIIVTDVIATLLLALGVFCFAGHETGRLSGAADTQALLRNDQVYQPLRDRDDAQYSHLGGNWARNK

| Binder | IC50 [1] | IC50 [2] | IC50 [3] | IC50 [4] | IC50 [5] | IC50 [6] |
| --- | --- | --- | --- | --- | --- | --- |
| huSP34.2.1 Fab-HF (Fab, V domains shown) VH: EVQLVESGGGLVQPGGSLRLSCAASGFTFSTYAMNWVRQAPGKGLEWVGRIRSKYNNYATYYAASVKGRFTISRDDSKNSLYLQMNSLKTEDTAMYYCVRHGNFGNSYVSWFAVWGQGTLVTVSS VL: QAVVTQEPSLTVSPGGTVTLTCRSSTGAVTTSNYANWVQQKPGQAPRGLIGGTNKRAPWTPARFSGSLIGDKAALTLSGAQPEDEAEYYCALWYSNLWVFGGGTKLTVL | 6.17 µg/mL | 3.68 µg/mL | 4.92 µg/mL | – | – | – |
| huSP34.4.6 Fab-HF (Fab, V domains shown) VH: EVQLVESGGGLVQPGGSLRLSCAASGFTFSTYAMNWVRQAPGKGLEWVGRIRSKYNNYATYYAASVKGRFTISRDDSKNSLYLQMNSLRTEDTAVYYCVRHGNFGHSYVSWFAVWGQGTLVTVSS VL: QAVVTQPPSLTVSPGGTVTLTCGSSTGAVTTGHYANWVQQKPGQAPRGLIGGTSNRAPGVPARFSGSLSGGKAALTISGAQPEDEAEYYCALWYSARWVFGGGTKLTVL | 18.5 µg/mL | 4.2 µg/mL | 11.4 µg/mL | – | – | – |
| huSP34.13.9 Fab-HF (Fab, V domains shown) VH: EVQLVESGGGLVQPGGSLRLSCAASGFTFSTYAMNWVRQAPGKGLEWVGRIRSKYNNYATYYAASVKGRFTISRDDSKNTLYLQMNSLRTEDTAVYYCVRHGNFGHSYVSWFAYWGQGTLVTVSS VL: QAVVTQPPSLTVSPGGTVTLTCGSSTGAVTTGHYANWVQQKPGQAPRGLIGGTNKRAPGVPARFSGSLSGGKAALTISGAQPEDEAEYYCALWYSNLWVFGGGTKLTVL | – | – | – | 0.48 µg/mL | 0.25 µg/mL | 0.36 µg/mL |
| huSP34.12.9 Fab-HF (Fab, V domains shown) VH: EVQLVESGGGLVQPGGSLRLSCAASGFTFSTYAMNWVRQAPGKGLEWVARIRSKYNNYATYYAASVKGRFTISRDDSKNSLYLQMNSLRTEDTAVYYCVRHGNFGHSYVSWFAYWGQGTLVTVSS VL: QAVVTQPPSLTVSPGGTVTLTCGSSTGAVTTGHYANWVQQKPGQAPRGLIGGTNKRAPGVPARFSGSLSGGKAALTISGAQPEDEAEYYCALWYSNLWVFGGGTKLTVL | – | – | – | 0.97 µg/mL | 0.49 µg/mL | 0.73 µg/mL |
| huSP34.3.5 Fab-HF (Fab, V domains shown) VH: EVQLVESGGGLVQPGGSLRLSCAASGFTFNTYAMNWVRQAPGKGLEWVGRIRSKYNNYATYYADSVKGRFTISRDDSKNSLYLQMNSLRTEDTAVYYCVRHGNFGHSYVSWFAYWGQGTLVTVSS VL: QAVVTQEPSLTVSPGGTVTLTCGSSTGAVTTGHYANWVQQKPGQAPRGLIGGTSNRAPWTPARFSGSLLGGKAALTLSGAQPEDEAEYYCALWYSARWVFGGGTKLTVL | 12.9 µg/mL | 10 µg/mL | 11.4 µg/mL | – | – | – |
| huSP34.4.1 Fab-HF (Fab, V domains shown) VH: EVQLVESGGGLVQPGGSLRLSCAASGFTFSTYAMNWVRQAPGKGLEWVGRIRSKYNNYATYYAASVKGRFTISRDDSKNSLYLQMNSLRTEDTAVYYCVRHGNFGHSYVSWFAVWGQGTLVTVSS VL: QAVVTQEPSLTVSPGGTVTLTCRSSTGAVTTSNYANWVQQKPGQAPRGLIGGTNKRAPWTPARFSGSLIGDKAALTLSGAQPEDEAEYYCALWYSNLWVFGGGTKLTVL | 9.57 µg/mL | 5.9 µg/mL | 7.74 µg/mL | – | – | – |
| huSP34.2.6 Fab-HF (Fab, V domains shown) VH: EVQLVESGGGLVQPGGSLRLSCAASGFTFSTYAMNWVRQAPGKGLEWVGRIRSKYNNYATYYAASVKGRFTISRDDSKNSLYLQMNSLKTEDTAMYYCVRHGNFGNSYVSWFAVWGQGTLVTVSS VL: QAVVTQPPSLTVSPGGTVTLTCGSSTGAVTTGHYANWVQQKPGQAPRGLIGGTSNRAPGVPARFSGSLSGGKAALTISGAQPEDEAEYYCALWYSARWVFGGGTKLTVL | 4.68 µg/mL | 3.4 µg/mL | 4.04 µg/mL | – | – | – |
| huSP34.2.2 Fab-HF (Fab, V domains shown) VH: EVQLVESGGGLVQPGGSLRLSCAASGFTFSTYAMNWVRQAPGKGLEWVGRIRSKYNNYATYYAASVKGRFTISRDDSKNSLYLQMNSLKTEDTAMYYCVRHGNFGNSYVSWFAVWGQGTLVTVSS VL: QAVVTQEPSLTVSPGGTVTLTCGSSTGAVTTSNYANWVQQKPGQAPRGLIGGTSNRAPWTPARFSGSLLGGKAALTLSGAQPEDEAEYYCALWYSNLWVFGGGTKLTVL | > 20 µg/mL | 16.6 µg/mL | 16.6 µg/mL | – | – | – |
| huSP34.12.10 Fab-HF (Fab, V domains shown) VH: EVQLVESGGGLVQPGGSLRLSCAASGFTFSTYAMNWVRQAPGKGLEWVARIRSKYNNYATYYAASVKGRFTISRDDSKNSLYLQMNSLRTEDTAVYYCVRHGNFGHSYVSWFAYWGQGTLVTVSS VL: QAVVTQPPSLTVSPGGTVTLTCGSSTGAVTTGHYANWVQQKPGQAPRGLIGGTNKRAPGVPARFSGSLSGGKAALTISGAQPEDEAEYYCALWYSNRWVFGGGTKLTVL | – | – | – | 0.69 µg/mL | 0.33 µg/mL | 0.51 µg/mL |
| huSP34.3.1 Fab-HF (Fab, V domains shown) VH: EVQLVESGGGLVQPGGSLRLSCAASGFTFNTYAMNWVRQAPGKGLEWVGRIRSKYNNYATYYADSVKGRFTISRDDSKNSLYLQMNSLRTEDTAVYYCVRHGNFGHSYVSWFAYWGQGTLVTVSS VL: QAVVTQEPSLTVSPGGTVTLTCRSSTGAVTTSNYANWVQQKPGQAPRGLIGGTNKRAPWTPARFSGSLIGDKAALTLSGAQPEDEAEYYCALWYSNLWVFGGGTKLTVL | 3.56 µg/mL | 2.22 µg/mL | 2.89 µg/mL | – | – | – |
| huSP34.3.2 Fab-HF (Fab, V domains shown) VH: EVQLVESGGGLVQPGGSLRLSCAASGFTFNTYAMNWVRQAPGKGLEWVGRIRSKYNNYATYYADSVKGRFTISRDDSKNSLYLQMNSLRTEDTAVYYCVRHGNFGHSYVSWFAYWGQGTLVTVSS VL: QAVVTQEPSLTVSPGGTVTLTCGSSTGAVTTSNYANWVQQKPGQAPRGLIGGTSNRAPWTPARFSGSLLGGKAALTLSGAQPEDEAEYYCALWYSNLWVFGGGTKLTVL | 11.9 µg/mL | 6.44 µg/mL | 9.19 µg/mL | – | – | – |
| huSP34.12.8 Fab-HF (Fab, V domains shown) VH: EVQLVESGGGLVQPGGSLRLSCAASGFTFSTYAMNWVRQAPGKGLEWVARIRSKYNNYATYYAASVKGRFTISRDDSKNSLYLQMNSLRTEDTAVYYCVRHGNFGHSYVSWFAYWGQGTLVTVSS VL: QAVVTQEPSLTVSPGGTVTLTCGSSTGAVTTGHYANWVQQKPGQAPRGLIGGTNKRAPGVPARFSGSLLGGKAALTISGAQPEDEAEYYCALWYSNRWVFGGGTKLTVL | – | – | – | 0.57 µg/mL | 0.29 µg/mL | 0.43 µg/mL |
| huSP34.13.7 Fab-HF (Fab, V domains shown) VH: EVQLVESGGGLVQPGGSLRLSCAASGFTFSTYAMNWVRQAPGKGLEWVGRIRSKYNNYATYYAASVKGRFTISRDDSKNTLYLQMNSLRTEDTAVYYCVRHGNFGHSYVSWFAYWGQGTLVTVSS VL: QAVVTQEPSLTVSPGGTVTLTCRSSTGAVTTGHYANWVQQKPGQAPRGLIGGTNKRAPGVPARFSGSLLGGKAALTISGAQPEDEAEYYCALWYSNLWVFGGGTKLTVL | – | – | – | 0.43 µg/mL | 0.18 µg/mL | 0.31 µg/mL |
| huSP34.12.7 Fab-HF (Fab, V domains shown) VH: EVQLVESGGGLVQPGGSLRLSCAASGFTFSTYAMNWVRQAPGKGLEWVARIRSKYNNYATYYAASVKGRFTISRDDSKNSLYLQMNSLRTEDTAVYYCVRHGNFGHSYVSWFAYWGQGTLVTVSS VL: QAVVTQEPSLTVSPGGTVTLTCRSSTGAVTTGHYANWVQQKPGQAPRGLIGGTNKRAPGVPARFSGSLLGGKAALTISGAQPEDEAEYYCALWYSNLWVFGGGTKLTVL | – | – | – | 0.77 µg/mL | 0.39 µg/mL | 0.58 µg/mL |
| mSP34 Fab-HF (Fab, V domains shown, also called mSP34 chimeric Fab) VH: EVKLLESGGGLVQPKGSLKLSCAASGFTFNTYAMNWVRQAPGKGLEWVARIRSKYNNYATYYADSVKDRFTISRDDSQSILYLQMNNLKTEDTAMYYCVRHGNFGNSYVSWFAYWGQGTLVTVSA VL: QAVVTQESALTTSPGETVTLTCRSSTGAVTTSNYANWVQEKPDHLFTGLIGGTNKRAPGVPARFSGSLIGDKAALTITGAQTEDEAIYFCALWYSNLWVFGGGTKLTVLG | – | – | 0.7 µg/mL | – | – | 0.68 µg/mL |
